± gives the uncertainty stated by the source.

We go through 37 sequences from the supplement of paper PMC7877785.

The nature of the series: self-splicing fitness, log relative to wild type (ln ratio); higher = more splicing; Tetrahymena group I intron in knt gene, E. coli kanamycin selection, DiMSum; sequences stand for … in CUCUCU…GGAGGGAAAAGUUAUCAGGCAUGCACCUGGUAGCUAGUCUUUAAACCAAUAGAUUGCAUCGGUUUAAAAGGCAAGACCGUCAAAUUGCGGGAAAGGGGUCAACAGCCGUUCAGUACCAAGUCUCAGGGGAAACUUUGAGAUGGCCUUGCAAAGGGUAUGGUAAUAAGCUGACGGACAUGGUCCUAACCACGCAGCCAAGUCCUAAGUCAACAGAUCUUCUGUUGAUAUGGAUGCAGUUCACAGACUAAAUGUCGGUCGGGGAAGAUGUAUUCUUCUCAUAAGAUAUAGUCGGACCUCUCCUUAAUGGGAGCUAGCGGAUGAAGUGAUGCAACACUGGAGCCGCUGGGAACUAAUUUGUAUGCGAAAGUAUAUUGAUUAGUUUUGGAGUACUCGUGGUCG
The method, boiled down:
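Pooled colonies went to amplicon sequencing on an Illumina HiSeq 2500 after six replicate transformations. The plates were LB agar with 100 μg/mL carbenicillin, 50 μM IPTG and 0.2% rhamnose, with or without 25 μg/mL kanamycin, incubated overnight at 37°C or 30°C. The E. coli BL21(DE3) library had all eight P1ex-region intron nucleotides randomised, the intron placed in the knt kanamycin-resistance gene on pET-22b(+). DiMSum fitness is the error-weighted combination of replicate fold changes, kanamycin against none, normalised to wild type.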

As for GUUCAGCAAUAUUACGUCGU, the “self-splicing fitness (ln)” value was -0.64 ± 0.098 (30 °C) and 0.241 ± 0.11 (37 °C).
Consider UUCCAGCAAUAUUACGAGGU, for which the “self-splicing fitness (ln)” value (30 °C) was -1.96 ± 0.17 and the “self-splicing fitness (ln)” value (37 °C) was -1.87 ± 0.16.
In the case of UCAGAGCAAUAUUACGGGUG, the “self-splicing fitness (ln)” value by setting is: (30 °C) -3.2 ± 0.2; (37 °C) -1.46 ± 0.14.
Turning to AUUUAGCAAUAUUACGGUCA, the “self-splicing fitness (ln)” value (30 °C) was -0.961 ± 0.13 and the “self-splicing fitness (ln)” value (37 °C) is -0.48 ± 0.12.
Take GUACAGCAAUAUUACGGGUU: the “self-splicing fitness (ln)” value was -3.13 ± 0.09 (30 °C) and -2.22 ± 0.099 (37 °C).
For CUAAAGCAAUAUUACGAGAA, the “self-splicing fitness (ln)” value (30 °C) was -2.99 ± 0.19 and the “self-splicing fitness (ln)” value (37 °C) is -3.25 ± 0.33.
For GGACAGCAAUAUUACGAGAA, in that order: -2.45 ± 0.36 and -1.54 ± 0.25.
Turning to GGCUAGCAAUAUUACGCGUA, the “self-splicing fitness (ln)” value runs as follows: (30 °C) -0.142 ± 0.14; (37 °C) 0.00477 ± 0.15.
For UUCCAGCAAUAUUACGCUAG the same measures were -2.89 ± 0.17 and -1.96 ± 0.2.
For CAUCAGCAAUAUUACGGCUA, in that order: -2.82 ± 0.2 and -1.44 ± 0.16.
For AACAAGCAAUAUUACGAGCG, in that order: -0.912 ± 0.057 and 0.125 ± 0.078.
Regarding AGCCAGCAAUAUUACGGACG, the “self-splicing fitness (ln)” value runs as follows: (30 °C) 0.121 ± 0.072; (37 °C) 0.405 ± 0.094.
For GUGAAGCAAUAUUACGUGGA, in that order: -3.07 ± 0.13 and -1.24 ± 0.15.
For AGCUAGCAAUAUUACGCGUU the same measures were -2.62 ± 0.091 and -2.11 ± 0.12.
For CACCAGCAAUAUUACGCCCG, the “self-splicing fitness (ln)” value (30 °C) was -0.197 ± 0.14 and the “self-splicing fitness (ln)” value (37 °C) turned out to be 0.343 ± 0.19.
Regarding CAGCAGCAAUAUUACGGGGU, the “self-splicing fitness (ln)” value runs as follows: (30 °C) -3.28 ± 0.15; (37 °C) -2.57 ± 0.16.
Regarding CUCAAGCAAUAUUACGUAUC, the “self-splicing fitness (ln)” value reads like this: (30 °C) -2.94 ± 0.14; (37 °C) -1.79 ± 0.14.
As to UAGUAGCAAUAUUACGAGGA, under “37 °C”, the “self-splicing fitness (ln)” value was -1.81 ± 0.46.
With ACACAGCAAUAUUACGCCCA, the “self-splicing fitness (ln)” value reads like this: (30 °C) -1.49 ± 0.075; (37 °C) -0.603 ± 0.073.
For GAAGAGCAAUAUUACGCGUU, in that order: -3.69 ± 0.33 and -3.12 ± 0.28.
Regarding UGGGAGCAAUAUUACGGGCA, the “self-splicing fitness (ln)” value by setting is: (30 °C) -2.36 ± 0.16; (37 °C) -0.757 ± 0.16.
For UAUAAGCAAUAUUACGACAA, in that order: 0.0108 ± 0.14 and -0.202 ± 0.17.
AUGAAGCAAUAUUACGACGU: the “self-splicing fitness (ln)” value (30 °C) is 0.206 ± 0.076 and the “self-splicing fitness (ln)” value (37 °C) was determined as 0.735 ± 0.088.
For UAUAAGCAAUAUUACGACGU, in that order: -1.12 ± 0.11 and -0.116 ± 0.11.
For AACAAGCAAUAUUACGGCAC the same measures were -0.526 ± 0.067 and -0.265 ± 0.1.
Consider CACCAGCAAUAUUACGGGGG, for which the “self-splicing fitness (ln)” value is, setting by setting: (30 °C) -3.36 ± 0.11; (37 °C) -2.64 ± 0.18.
In the case of GGAGAGCAAUAUUACGUUAU, the “self-splicing fitness (ln)” value was -3.27 ± 0.23 (30 °C) and -2.98 ± 0.32 (37 °C).
As for GACUAGCAAUAUUACGGUGC, the “self-splicing fitness (ln)” value was -2.65 ± 0.14 (30 °C) and -1.73 ± 0.16 (37 °C).
For UGCAAGCAAUAUUACGGAAU, in that order: -2.88 ± 0.19 and -2.45 ± 0.2.
GAUCAGCAAUAUUACGGGAU: the “self-splicing fitness (ln)” value reads like this: (30 °C) -3.01 ± 0.12; (37 °C) -1.18 ± 0.11.
Take CGGUAGCAAUAUUACGUAAG: the “self-splicing fitness (ln)” value amounted to 0.00223 ± 0.095 (30 °C) and 0.329 ± 0.11 (37 °C).
For CUGGAGCAAUAUUACGUUAG, in that order: -1.65 ± 0.068 and -1.51 ± 0.098.
With GUAUAGCAAUAUUACGCUAU, the “self-splicing fitness (ln)” value is -3.33 ± 0.33 (30 °C) and -1.23 ± 0.28 (37 °C).
On to CAAAAGCAAUAUUACGGAUC, for which the “self-splicing fitness (ln)” value by setting is: (30 °C) -3.73 ± 0.22; (37 °C) -1.98 ± 0.16.
Turning to CCUGAGCAAUAUUACGCAAU, the “self-splicing fitness (ln)” value was -3.31 ± 0.19 (30 °C) and -2.68 ± 0.24 (37 °C).
For GCGAAGCAAUAUUACGCCUG, in that order: -2.26 ± 0.19 and -2.16 ± 0.24.
For CAUAAGCAAUAUUACGGGUG, in that order: -2.3 ± 0.08 and -1.17 ± 0.078.
